This passage reports stoichiometry N results from PMC12945441.

The assay deals with prefusion SARS-CoV-2 Omicron BA.1 S ectodomain trimer (SARS-CoV-2 Omicron BA.1). Put plainly: cryo-EM structure.

As to “prefusion SARS-CoV-2 Omicron BA.1 S ectodomain trimer (domain or fragment)”, the stoichiometry N (as a rule, the number of molecules, sites or subunits per partner or assembly) was found to be 3.
